Results: patent publication US20240398942A1, “USE OF ANTI-CD40 ANTIBODY” (CHIA TAI TIANQING PHARMACEUTICAL GROUP CO., LTD., priority 2021, published 2024)
Where two headings read alike, the source gives them in different places.

B1: huC1H1-V1: humanized C1H1 anti-CD40 antibody, VH SEQ ID NO: 20 X1=A, VL SEQ ID NO: 24 X1=K X2=F, human IgG2/κ (antibody, V domains shown)
VH: EVQLVESGGGLVKPGGSLRLSCAASGFTFSNYGISWVRQAPGKGLEWVXSISSGGDNTYYPDNVKGRFTISRDNAKNSLYLQMNSLRAEDTAVYYCARAGEKAMDYWGQGTLVTVSS
VL: EIVLTQSPATLSLSPGERATLSCRASQTINNNLHWYQQKPGQAPRLLIXYASQSISGIPARFSGSGSGTDFTLTISSLEPEDFAVYXCQQFSSWPLTFGGGTKVEIK
modifications: not fully specified; human IgG2/kappa constant regions; VH of huC1H1-V1 to huC1H1-V4; VARIANT 49 X can be A or S; VL of huC1H1-V1 to huC1H1-V4; VARIANT 49 X can be K or Y; VARIANT 87 X can be F or Y
B2: huC1H1-V2: humanized C1H1 anti-CD40 antibody, VH SEQ ID NO: 20 X1=S, VL SEQ ID NO: 24 X1=K X2=F, human IgG2/κ (antibody, V domains shown)
VH: EVQLVESGGGLVKPGGSLRLSCAASGFTFSNYGISWVRQAPGKGLEWVXSISSGGDNTYYPDNVKGRFTISRDNAKNSLYLQMNSLRAEDTAVYYCARAGEKAMDYWGQGTLVTVSS
VL: EIVLTQSPATLSLSPGERATLSCRASQTINNNLHWYQQKPGQAPRLLIXYASQSISGIPARFSGSGSGTDFTLTISSLEPEDFAVYXCQQFSSWPLTFGGGTKVEIK
modifications: not fully specified; variable positions X1=S; VL X1=K X2=F; IgG2/kappa constant; VH of huC1H1-V1 to huC1H1-V4; VARIANT 49 X can be A or S; VL of huC1H1-V1 to huC1H1-V4; VARIANT 49 X can be K or Y; VARIANT 87 X can be F or Y

Columns and labels:
Human CD40-his [1] = target: T1, Human CD40-his (Homo sapiens, UniProt P25942); assay: Octet kinetics of humanized C1H1 antibodies; assay type: binding; details: Table 3, Octet; for Ka: humanized antibodies in cell supernatant, chimeric and benchmark 5 μg/mL
T1 construct: His; purchased Acro biosystems CD0-H5228
T1 sequence (P25942 21-277): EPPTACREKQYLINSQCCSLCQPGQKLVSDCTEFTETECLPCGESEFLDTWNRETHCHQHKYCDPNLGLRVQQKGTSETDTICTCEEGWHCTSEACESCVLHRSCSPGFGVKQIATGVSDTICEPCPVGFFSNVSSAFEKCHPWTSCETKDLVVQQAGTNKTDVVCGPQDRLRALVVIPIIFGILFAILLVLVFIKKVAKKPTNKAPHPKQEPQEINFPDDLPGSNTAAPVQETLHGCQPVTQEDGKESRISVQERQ
Description: After six days of culture in a shake flask, the cell supernatant containing the humanized antibodies huC1H1-V1 to huC1H1-V4 was harvested and the binding affinity of the antibodies to human CD40 was determined on an Octet system (Fortebio, Octet RED 96) according to the following procedures. Briefly, an anti-human IgG Fc capture (AHC) biosensor (from ForteBio) was pre-soaked in a 10 mM glycine solution (pH 1.5) for 3 s, and then soaked in a running buffer (PBST containing 0.5% w/v of BSA) for 3 s. The pre-soaking and soaking procedures were repeated 3 times. Then, the sensor was soaked in the cell supernatant containing the humanized anti-CD40 antibody, chimeric antibody C1H1 dissolved in HBS-EP^+ buffer at a concentration of 5 μg/mL, or the benchmark dissolved in HBS-EP^+ buffer at a concentration of 5 μg/mL for 120 s, and then soaked in the running buffer for 5 min. The new baseline was run in the running buffer for 180 s. The sensor was then soaked for 120 s in human CD40-his protein (Acro biosystems, Cat. No. CD0-H5228) 2-fold serially diluted from 40 nM in the running buffer and for 10 min in the running buffer […]. Finally, the sensor was pre-soaked in a 10 mM glycine solution (pH 1.5) for 3 s, and then soaked in the running buffer for 3 s. The pre-soaking and soaking procedures were repeated 3 times. The association and dissociation curves were fitted to a 1:1 Langmuir binding model using ForteBio Data Analysis 8.1.

[2] = target: binding of the benchmark (BM2) to human CD40 (Homo sapiens, UniProt P25942); assay: Benchmark blocking competitive ELISA; details: in words, FIG. 6
Chain of binding of the benchmark (BM2) to human CD40 (P25942 21-193): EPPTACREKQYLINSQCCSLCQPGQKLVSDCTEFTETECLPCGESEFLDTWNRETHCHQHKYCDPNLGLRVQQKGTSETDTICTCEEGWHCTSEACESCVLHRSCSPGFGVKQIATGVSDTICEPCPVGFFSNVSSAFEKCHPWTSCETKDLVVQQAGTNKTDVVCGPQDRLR
Description: The ability of the anti-CD40 antibody of the present application to block the binding of the benchmark to human CD40 was determined by competitive ELISA. Briefly, BM2 antibody was immobilized on a 96-well micro plates at 1 μg/mL in PBS, 100 µL/well, and incubated overnight at 4° C. The next day, the plate was washed once with a washing buffer before a blocking buffer (PBST containing 5% w/v of skim milk) was added. The plate was then incubated at 37° C. for 2 h for blocking. During the blocking of the 96-well plate, the anti-CD40 antibody of the present application or the benchmark was serially 5-fold diluted from 66.7 nM with a biotinylated human CD40-Fc protein (amino acid residues 21-193 of SEQ ID NO: 30 linked to the N terminus of amino acid residues 99-330 of SEQ ID NO: 28, dissolved in PBST containing 2.5% w/v of skim milk at a concentration of 0.23 nM) and then incubated at room temperature for 40 min. After the plate was washed 4 times, the antibody/biotinylated human CD40-Fc mixture was added at 100 μL/well to the plate coated with BM2. The plate was incubated at 37° C. for 40 min and again washed 4 times with the washing buffer. […] The absorbance was read on a microplate reader using the dual wavelength mode (TMB detection wavelength: 450 nm, reference wavelength: 630 nm). […] Data were analyzed using Graphpad Prism software, and IC50 values were obtained.

Human CD40-his [3] = target: T1, Human CD40-his; assay: Biacore surface plasmon resonance affinity and binding kinetics; details: Table 5, Biacore; for Ka: purified antibodies
From the text: (§1) The affinity and binding kinetics of the anti-CD40 antibody in the present application were characterized by a Biacore T200 system (GE Healthcare, Pittsburgh, PA, USA).
(§2) Briefly, a goat anti-human IgG (GE Healthcare, Cat. No. BR100839, human antibody capture kit) was covalently linked to a CM5 chip (GE Healthcare, Cat. No. BR100530, carboxymethylated dextran-coated chip) via the primary amine group using a standard amine coupling kit supplied by Biacore (GE Healthcare, Pittsburgh, PA, USA). Unreacted portions on the biosensor surface were blocked with ethanolamine. Then, the anti-CD40 antibody of the present application and two benchmark antibodies (BM1 (dacetuzumab, Genentech Inc., also referred to CD40-BM1, prepared in-house; the heavy and light chain amino acid sequences are set forth in SEQ ID NOs: 40 and 41, respectively) and BM2 (selicrelumab, Abgenix Inc., also referred to CD40-BM2, prepared in-house; the heavy and light chain amino acid sequences are set forth in SEQ ID NOS: 42 and 43, respectively)) at a concentration of 66.67 nM were directed through the chip at a flow rate of 10 μL/min. Then, serially diluted recombinant human CD40-his (Acro biosystems, Cat. No. CD0-H5228, serially 2-fold diluted from 80 nM in HBS-EP^+ buffer (supplied by Biacore)) or cynomolgus monkey CD40-his protein (Acro biosystems, Cat. No. CD0-C52H6, serially 2-fold diluted from 80 nM in HBS-EP^+ buffer (supplied by Biacore)) was directed through the chip at a flow rate of 30 μL/min. The antigen-antibody binding kinetics was tracked for 2 min and the dissociation kinetics was tracked for 10 min. The association and dissociation curves were fitted to a 1:1 Langmuir binding model using BIAcore evaluation software. KD, Ka, and Kd values were determined.

[4] = target: Cynomolgus monkey CD40-his; assay: as above; details: Table 5, Biacore; for Ka: purified antibodies
From the text: as §1, §2

Row | Molecule | Kd (Human CD40-his [1]; dissociation rate) | Ka (Human CD40-his [1]) | Kd (Human CD40-his [1]; read-out: KD) | Blocking of the binding of human CD40 to BM2 [2] | Kd (Human CD40-his [3]; dissociation rate) | Ka (Human CD40-his [3]) | Kd (Human CD40-his [3]; read-out: KD) | Kd ([4]; dissociation rate) | Ka [4] | Kd ([4]; read-out: KD)
1 | B1 | 0.00128 s⁻¹ | 1.41e+06 M⁻¹ s⁻¹ | 0.904 nM | able to block the binding of human CD40 to BM2 | 0.00248 s⁻¹ | 2.25e+06 M⁻¹ s⁻¹ | 1.1 nM | 0.002371 s⁻¹ | 2.14e+06 M⁻¹ s⁻¹ | 1.11 nM
2 | B2 | 0.000981 s⁻¹ | 1.65e+06 M⁻¹ s⁻¹ | 0.596 nM | able to block the binding of human CD40 to BM2 | 0.002704 s⁻¹ | 2.31e+06 M⁻¹ s⁻¹ | 1.17 nM | 0.002735 s⁻¹ | 2.56e+06 M⁻¹ s⁻¹ | 1.07 nM
